As usually defined, the Kd is the free concentration of one partner at which half of the binding sites on the other are occupied at equilibrium, for simple one-to-one binding.

T1: EsCas13d, nuclease-dead (Eubacterium siraeum, UniProt B0MS50, R295A;H300A;R849A;H854A)
T1 sequence: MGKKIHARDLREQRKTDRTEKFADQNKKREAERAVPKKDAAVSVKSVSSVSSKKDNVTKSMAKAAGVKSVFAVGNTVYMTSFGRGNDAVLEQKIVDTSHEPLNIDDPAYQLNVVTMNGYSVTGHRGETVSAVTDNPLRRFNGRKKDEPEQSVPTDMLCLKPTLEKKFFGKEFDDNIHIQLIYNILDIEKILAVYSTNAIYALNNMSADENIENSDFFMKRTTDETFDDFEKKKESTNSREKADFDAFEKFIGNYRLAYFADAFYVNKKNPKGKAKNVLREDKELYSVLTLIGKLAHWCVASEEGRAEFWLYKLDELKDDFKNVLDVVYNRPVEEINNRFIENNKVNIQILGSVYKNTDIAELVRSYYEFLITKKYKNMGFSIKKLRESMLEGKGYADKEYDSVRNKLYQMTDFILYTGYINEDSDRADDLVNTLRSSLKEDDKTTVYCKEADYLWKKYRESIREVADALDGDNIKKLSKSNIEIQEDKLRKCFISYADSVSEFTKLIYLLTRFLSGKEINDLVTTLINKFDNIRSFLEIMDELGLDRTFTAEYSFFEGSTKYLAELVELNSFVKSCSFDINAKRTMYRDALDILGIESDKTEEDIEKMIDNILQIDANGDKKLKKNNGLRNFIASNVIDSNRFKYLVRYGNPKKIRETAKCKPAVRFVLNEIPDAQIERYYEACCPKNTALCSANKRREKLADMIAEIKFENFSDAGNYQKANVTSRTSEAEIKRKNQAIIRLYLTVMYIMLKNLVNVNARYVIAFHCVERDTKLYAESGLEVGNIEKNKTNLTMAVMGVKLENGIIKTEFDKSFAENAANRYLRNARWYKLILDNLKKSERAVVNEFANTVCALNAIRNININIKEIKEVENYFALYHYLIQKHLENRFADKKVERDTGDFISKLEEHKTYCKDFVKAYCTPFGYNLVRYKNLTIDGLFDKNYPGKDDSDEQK

B1: target 3 G4U (mixed)
RNA 1: CACCCGUGCAAAAUUGCAGGGGUCUAAAACGACCUGAAUAUUUCAGAUCAAA
RNA 2: GGGAAUGGAUCCACAUCUACGAAUUCGUUUUUGAUCUGAAAUAUUCAUGUCUGCAGAUCGGAAGAGCACACGU
B2: target 3 C1A,G3A (mixed)
RNA 1: CACCCGUGCAAAAUUGCAGGGGUCUAAAACGACCUGAAUAUUUCAGAUCAAA
RNA 2: GGGAAUGGAUCCACAUCUACGAAUUCGUUUUUGAUCUGAAAUAUUCAGAUAUGCAGAUCGGAAGAGCACACGU
B3: target 3 C6G,A18G (mixed)
RNA 1: CACCCGUGCAAAAUUGCAGGGGUCUAAAACGACCUGAAUAUUUCAGAUCAAA
RNA 2: GGGAAUGGAUCCACAUCUACGAAUUCGUUUUUGGUCUGAAAUAUUGAGGUCUGCAGAUCGGAAGAGCACACGU
B4: target 3 insC 3' of 8,insA 3' of 6 (mixed)
RNA 1: CACCCGUGCAAAAUUGCAGGGGUCUAAAACGACCUGAAUAUUUCAGAUCAAA
RNA 2: GGGAAUGGAUCCACAUCUACGAAUUCGUUUUUGAUCUGAAAUAUCUCAAGGUCUGCAGAUCGGAAGAGCACACGU
B5: target 3 G3A (mixed)
RNA 1: CACCCGUGCAAAAUUGCAGGGGUCUAAAACGACCUGAAUAUUUCAGAUCAAA
RNA 2: GGGAAUGGAUCCACAUCUACGAAUUCGUUUUUGAUCUGAAAUAUUCAGAUCUGCAGAUCGGAAGAGCACACGU
B6: target 3 C6G,U8G (mixed)
RNA 1: CACCCGUGCAAAAUUGCAGGGGUCUAAAACGACCUGAAUAUUUCAGAUCAAA
RNA 2: GGGAAUGGAUCCACAUCUACGAAUUCGUUUUUGAUCUGAAAUAGUGAGGUCUGCAGAUCGGAAGAGCACACGU
B7: target 3 del4 (mixed)
RNA 1: CACCCGUGCAAAAUUGCAGGGGUCUAAAACGACCUGAAUAUUUCAGAUCAAA
RNA 2: GGGAAUGGAUCCACAUCUACGAAUUCGUUUUUGAUCUGAAAUAUUCAGUCUGCAGAUCGGAAGAGCACACGU
B8: target 3 insA 3' of 22,insG 3' of 8 (mixed)
RNA 1: CACCCGUGCAAAAUUGCAGGGGUCUAAAACGACCUGAAUAUUUCAGAUCAAA
RNA 2: GGGAAUGGAUCCACAUCUACGAAUUCGUUUAUUGAUCUGAAAUAUGUCAGGUCUGCAGAUCGGAAGAGCACACGU
B9: target 3 G19U,U21A (mixed)
RNA 1: CACCCGUGCAAAAUUGCAGGGGUCUAAAACGACCUGAAUAUUUCAGAUCAAA
RNA 2: GGGAAUGGAUCCACAUCUACGAAUUCGUUUAUUAUCUGAAAUAUUCAGGUCUGCAGAUCGGAAGAGCACACGU
B10: target 3 insU 3' of 14,insG 3' of 5 (mixed)
RNA 1: CACCCGUGCAAAAUUGCAGGGGUCUAAAACGACCUGAAUAUUUCAGAUCAAA
RNA 2: GGGAAUGGAUCCACAUCUACGAAUUCGUUUUUGAUCUGUAAAUAUUCAGGGUCUGCAGAUCGGAAGAGCACACGU
B11: target 1 A1G,U3C (mixed)
RNA 1: CACCCGUGCAAAAAUGCAGGGGUCUAAAACUGAGCGGAUAACCUCUCUAUGG
RNA 2: GGGAAUGGAUCCACAUCUACGAAUUCGUACCAUAGAGAGGUUAUCCGCCCGCCGAGAUCGGAAGAGCACACGU
B12: target 1 insG 3' of 16,insG 3' of 9 (mixed)
RNA 1: CACCCGUGCAAAAAUGCAGGGGUCUAAAACUGAGCGGAUAACCUCUCUAUGG
RNA 2: GGGAAUGGAUCCACAUCUACGAAUUCGUACCAUAGAGGAGGUUAGUCCGCUCACCGAGAUCGGAAGAGCACACGU
B13: target 1 C6A,A20C (mixed)
RNA 1: CACCCGUGCAAAAAUGCAGGGGUCUAAAACUGAGCGGAUAACCUCUCUAUGG
RNA 2: GGGAAUGGAUCCACAUCUACGAAUUCGUACCCUAGAGAGGUUAUCAGCUCACCGAGAUCGGAAGAGCACACGU

For the data set, the target named is T1, EsCas13d, nuclease-dead. The data set is described as follows: crRNA (strand 1, pre-loaded); Mg2+; 40 mM Tris-HCl pH 7.5, 150 mM NaCl, 6 mM MgCl2, 1 mM DTT, 0.1% Tween-20, 0.2 mg/ml BSA; 25 C; 10 min per concentration, then washed. To be noted: tags: His6-TwinStrep-SUMO cleaved; N-terminal SNAP kept (SNAP-Surface 488); label: 3' end held by stalled T7 RNA polymerase.
B1 yielded a Kd of 4.25 ± 0.335 nM. The same measure for B2: 37.5 ± 13.5 nM; for B3: 47 ± 9.5 nM.

In the case of B4, binding was put at a Kd of 71 ± 10.5 nM. In turn, B5 registered a Kd of 46 ± 11.5 nM. Against the preceding molecule, the Kd is about 1.5-fold lower. B6: binding was characterised by a dissociation constant (Kd) of 64 ± 8.5 nM. B7 displayed a Kd of 23.6 ± 3 nM.

B8 yielded a Kd of about 90 nM. Molecule B9 registered a Kd of 99.5 ± 14.5 nM. For B10 the value was 60.5 ± 19.5 nM. Turning to B11, the dissociation constant (Kd) worked out at 35 ± 7 nM.

The molecule B12 came in with a Kd of 31 ± 4 nM. The molecule B13 displayed an equilibrium dissociation constant (Kd) of 38 ± 4 nM.
